The text below walks through data of paper PMC11555231 (2024).

Ends that are not written are not given here.

The labels stand for the following.
B1: PADI4_3 variant with R7 replaced by asparagine (peptide)
chain: YRDHHYNHPKYCG
modifications: as PADI4_3: D-tyrosine at position 1; thioether cyclisation between the N-terminus and the cysteine side chain; C-terminal amide
B2: PADI4_3 variant with R7 replaced by alanine (peptide)
chain: YRDHHYAHPKYCG
modifications: as PADI4_3: D-tyrosine at position 1; thioether cyclisation between the N-terminus and the cysteine side chain; C-terminal amide
B3: PADI4_3 variant with R7 replaced by tryptophan (peptide)
chain: YRDHHYWHPKYCG
modifications: as PADI4_3: D-tyrosine at position 1; thioether cyclisation between the N-terminus and the cysteine side chain; C-terminal amide
B4: PADI3_H4R_K10_I (peptide)
peptide: YRDRHYRHPIYCG
modifications: D-tyrosine at position 1; N-terminus joined to the side chain of Cys12 by a thioether bond (cyclic); C-terminal amide
B5: PADI4_11 analogue with E2 replaced by glutamine (peptide)
chain: YQSCRYRQVLQL
modifications: as PADI4_11: thioether cyclisation between the N-terminus and the side chain of C4; C-terminal amide
B6: PADI4_11 analogue with R5 replaced by alanine (peptide)
chain: YESCAYRQVLQL
modifications: as PADI4_11: thioether cyclisation between the N-terminus and the side chain of C4; C-terminal amide
B7: PADI4_11 analogue with R7 replaced by alanine (peptide)
chain: YESCRYAQVLQL
modifications: as PADI4_11: thioether cyclisation between the N-terminus and the side chain of C4; C-terminal amide
B8: PADI4_11 (peptide)
peptide: YESCRYRQVLQL
modifications: not fully specified; L-tyrosine at position 1; cyclised via a thioether bond between the N-terminus (chloroacetylated) and the side chain of C4; C-terminal amide
B9: PADI4_11 analogue with E2 replaced by aspartic acid (peptide)
chain: YDSCRYRQVLQL
modifications: as PADI4_11: thioether cyclisation between the N-terminus and the side chain of C4; C-terminal amide
B10: PADI4_11 analogue with R5 replaced by lysine (peptide)
chain: YESCKYRQVLQL
modifications: as PADI4_11: thioether cyclisation between the N-terminus and the side chain of C4; C-terminal amide
B11: PADI4_11 analogue with E2 replaced by alanine (peptide)
chain: YASCRYRQVLQL
modifications: as PADI4_11: thioether cyclisation between the N-terminus and the side chain of C4; C-terminal amide
B12: PADI4_11 analogue with R7 replaced by lysine (peptide)
chain: YESCRYKQVLQL
modifications: as PADI4_11: thioether cyclisation between the N-terminus and the side chain of C4; C-terminal amide

For the first test, the target named is T1, N-terminally biotinylated recombinant human PADI4 (bio-His-PADI4) (human, UniProt Q9UM07 1-663, biotin on the N-terminal Avi-Tag (BirA)). Nature of the test: SPR. For orientation: In SPR one partner is held on a chip, and binding of the other changes the refractive index at the surface.
T1 sequence (Q9UM07 whole entry): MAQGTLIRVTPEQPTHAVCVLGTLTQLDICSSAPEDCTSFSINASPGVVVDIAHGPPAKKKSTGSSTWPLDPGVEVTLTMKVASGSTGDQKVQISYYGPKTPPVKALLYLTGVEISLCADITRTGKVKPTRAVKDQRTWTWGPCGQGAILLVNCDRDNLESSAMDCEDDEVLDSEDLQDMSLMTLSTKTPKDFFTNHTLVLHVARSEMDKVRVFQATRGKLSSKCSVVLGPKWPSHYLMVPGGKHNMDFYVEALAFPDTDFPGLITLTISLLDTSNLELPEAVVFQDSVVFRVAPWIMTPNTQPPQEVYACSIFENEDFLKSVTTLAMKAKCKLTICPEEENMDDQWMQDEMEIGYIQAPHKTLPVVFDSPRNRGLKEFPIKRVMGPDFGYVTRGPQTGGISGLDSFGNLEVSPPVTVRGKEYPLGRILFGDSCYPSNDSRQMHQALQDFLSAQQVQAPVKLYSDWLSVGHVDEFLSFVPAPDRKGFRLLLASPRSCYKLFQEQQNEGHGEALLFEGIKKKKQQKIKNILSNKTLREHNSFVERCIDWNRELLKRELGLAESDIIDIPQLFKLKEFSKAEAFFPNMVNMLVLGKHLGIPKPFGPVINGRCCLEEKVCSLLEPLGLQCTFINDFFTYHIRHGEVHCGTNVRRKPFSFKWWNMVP
For the molecule YRDHHYRHPVYCG [PADI4_3_K10V], the Kd is 5 nM.
Same read-out and setting: then B1, with 41 nM; and YRDHHHRHPKYCG [PADI4_3_Y6H], with 30 nM; and B2, with 8 nM.
On the same count and under the same terms, then B3, with 6 nM; and YRDHHYRHPKYCG [PADI4_3_dY1(OMe)Y], with 23 nM; and YRDHHYRHPIYCG [PADI4_3_K10I], with 4 nM.
Same read-out and setting: then B4, with 7 nM.

The target in a further test is T1, N-terminally biotinylated recombinant …. The test can be described thus: SPR. The source holds these as a separate data set.
In the case of YESCRYRQVAQL [PADI4_11 L10A], the Kd was 300 nM.
On the same count and under the same terms, then YESCRARQVLQL [PADI4_11 Y6A], with 13000 nM.
Same read-out and setting: then YESCRYRAVLQL [PADI4_11 Q8A], with 500 nM; and B5, with 20000 nM.
On the same count and under the same terms, then YESCRYRQVLAL [PADI4_11 Q11A], with 310 nM.
For YESARYRQVLQL-NH2 [PADI4_11 analogue with C4 replaced by alanine], the Kd turned out to be 118000 nM.
Still for that read-out and setting: then YEACRYRQVLQL [PADI4_11 S3A], with 160 nM; and B6, with 34000 nM; and B7, with 4000 nM.
Same read-out and setting: then B8, with 500 nM; and B9, with 41000 nM.
In the case of YESCRYRQALQL [PADI4_11 V9A], the Kd came to 14000 nM.
Same read-out and setting: then AESCRYRQVLQL [PADI4_11 Y1A], with 11100 nM; and B10, with 1400 nM.
The same measure, in the same setting: then YESCRYRQVLQA [PADI4_11 L12A], with 5100 nM; and B11, with 114000 nM; and B12, with 700 nM.
Still for that read-out and setting: then YESCRY [11B], with above 2000 nM.

The Kd is the concentration at which binding is half-saturated.
